Laboratory results from IntAct's records for PubMed 25873389.

B1: Protein deacetylase HDAC6 (Homo sapiens), Q9UBN7 (parent)
chain: MTSTGQDSTTTRQRRSRQNPQSPPQDSSVTSKRNIKKGAVPRSIPNLAEVKKKGKMKKLGQAMEEDLIVGLQGMDLNLEAEALAGTGLVLDEQLNEFHCLWDDSFPEGPERLHAIKEQLIQEGLLDRCVSFQARFAEKEELMLVHSLEYIDLMETTQYMNEGELRVLADTYDSVYLHPNSYSCACLASGSVLRLVDAVLGAEIRNGMAIIRPPGHHAQHSLMDGYCMFNHVAVAARYAQQKHRIRRVLIVDWDVHHGQGTQFTFDQDPSVLYFSIHRYEQGRFWPHLKASNWSTTGFGQGQGYTINVPWNQVGMRDADYIAAFLHVLLPVALEFQPQLVLVAAGFDALQGDPKGEMAATPAGFAQLTHLLMGLAGGKLILSLEGGYNLRALAEGVSASLHTLLGDPCPMLESPGAPCRSAQASVSCALEALEPFWEVLVRSTETVERDNMEEDNVEESEEEGPWEPPVLPILTWPVLQSRTGLVYDQNMMNHCNLWDSHHPEVPQRILRIMCRLEELGLAGRCLTLTPRPATEAELLTCHSAEYVGHLRATEKMKTRELHRESSNFDSIYICPSTFACAQLATGAACRLVEAVLSGEVLNGAAVVRPPGHHAEQDAACGFCFFNSVAVAARHAQTISGHALRILIVDWDVHHGNGTQHMFEDDPSVLYVSLHRYDHGTFFPMGDEGASSQIGRAAGTGFTVNVAWNGPRMGDADYLAAWHRLVLPIAYEFNPELVLVSAGFDAARGDPLGGCQVSPEGYAHLTHLLMGLASGRIILILEGGYNLTSISESMAACTRSLLGDPPPLLTLPRPPLSGALASITETIQVHRRYWRSLRVMKVEDREGPSSSKLVTKKAPQPAKPRLAERMTTREKKVLEAGMGKVTSASFGEESTPGQTNSETAVVALTQDQPSEAATGGATLAQTISEAAIGGAMLGQTTSEEAVGGATPDQTTSEETVGGAILDQTTSEDAVGGATLGQTTSEEAVGGATLAQTTSEAAMEGATLDQTTSEEAPGGTELIQTPLASSTDHQTPPTSPVQGTTPQISPSTLIGSLRTLELGSESQGASESQAPGEENLLGEAAGGQDMADSMLMQGSRGLTDQAIFYAVTPLPWCPHLVAVCPIPAAGLDVTQPCGDCGTIQENWVCLSCYQVYCGRYINGHMLQHHGNSGHPLVLSYIDLSAWCYYCQAYVHHQALLDVKNIAHQNKFGEDMPHPH

Variants of: B1
Conditions: with hdac9_mouse Hdac9, Q99N13
Chain of hdac9_mouse Hdac9, Q99N13 (Q99N13 whole entry): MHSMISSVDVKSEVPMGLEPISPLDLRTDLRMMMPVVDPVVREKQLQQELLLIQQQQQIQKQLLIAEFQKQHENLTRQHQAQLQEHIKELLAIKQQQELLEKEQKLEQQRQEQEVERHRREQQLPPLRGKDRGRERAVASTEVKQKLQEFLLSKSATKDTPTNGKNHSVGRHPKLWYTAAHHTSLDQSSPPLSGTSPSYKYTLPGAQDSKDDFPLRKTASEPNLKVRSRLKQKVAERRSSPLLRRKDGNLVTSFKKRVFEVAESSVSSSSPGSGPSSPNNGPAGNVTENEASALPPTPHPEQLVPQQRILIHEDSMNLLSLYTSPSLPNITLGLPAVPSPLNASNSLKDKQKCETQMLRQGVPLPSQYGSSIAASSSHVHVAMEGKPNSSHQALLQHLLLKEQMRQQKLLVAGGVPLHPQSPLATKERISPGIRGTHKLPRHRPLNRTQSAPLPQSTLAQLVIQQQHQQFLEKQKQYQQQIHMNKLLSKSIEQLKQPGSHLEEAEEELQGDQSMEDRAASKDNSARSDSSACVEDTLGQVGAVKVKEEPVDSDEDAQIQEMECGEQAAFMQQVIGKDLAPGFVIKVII

effect of a mutation on the interaction | Variant
decreasing interaction strength | H611A
decreasing interaction strength | H216A
disrupting interaction strength | H216A;H611A
